The record followed here is patent publication US20080009025.

Data set [1] concerns the target PDKtide (39 amino acid polypeptide, T308tide fused to PIFtide).
A further data set addresses T1, T308tide.
T1 chain: KTFCGTPEYLAPEV

Another data set concerns the target T2, D978A-PIFtide.
T2 chain: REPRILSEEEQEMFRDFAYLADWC

Data set [2] concerns the target GST-PKBα (full length), P31749.
Data set [3] has as its target GST-PKBα[F472A] (full length), P31749.
Data set [4] concerns the target GST-PKBα[S473D] (full length), P31749.
Data set [5] concerns the target GST-SGK1 (lacking the N-terminal 60 amino acids), O00141.
Data set [6] deals with GST-SGK1[T422D] (lacking the N-terminal 60 amino acids), O00141.
GST-SGK1[T422D] (lacking the N-terminal 60 amino acids), O00141, sequence (O00141 whole entry, looked up, stated change not applied): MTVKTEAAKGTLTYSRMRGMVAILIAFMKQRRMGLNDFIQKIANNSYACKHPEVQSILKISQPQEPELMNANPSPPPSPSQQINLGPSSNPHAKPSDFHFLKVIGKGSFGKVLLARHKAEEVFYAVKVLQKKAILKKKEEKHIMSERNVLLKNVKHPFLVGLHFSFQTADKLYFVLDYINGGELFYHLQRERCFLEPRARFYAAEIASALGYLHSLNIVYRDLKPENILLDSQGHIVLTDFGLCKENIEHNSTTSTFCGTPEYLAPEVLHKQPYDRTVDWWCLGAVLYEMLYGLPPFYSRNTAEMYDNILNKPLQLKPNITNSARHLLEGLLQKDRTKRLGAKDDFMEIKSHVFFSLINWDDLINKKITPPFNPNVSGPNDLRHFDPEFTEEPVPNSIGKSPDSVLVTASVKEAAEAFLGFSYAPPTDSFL
Data set [7] concerns the target GST-ΔPH-PKBα[S473D], P31749.
Data set [8] deals with His-412E-p70 S6K-T2, P23443.
His-412E-p70 S6K-T2, P23443, sequence (P23443 whole entry, looked up): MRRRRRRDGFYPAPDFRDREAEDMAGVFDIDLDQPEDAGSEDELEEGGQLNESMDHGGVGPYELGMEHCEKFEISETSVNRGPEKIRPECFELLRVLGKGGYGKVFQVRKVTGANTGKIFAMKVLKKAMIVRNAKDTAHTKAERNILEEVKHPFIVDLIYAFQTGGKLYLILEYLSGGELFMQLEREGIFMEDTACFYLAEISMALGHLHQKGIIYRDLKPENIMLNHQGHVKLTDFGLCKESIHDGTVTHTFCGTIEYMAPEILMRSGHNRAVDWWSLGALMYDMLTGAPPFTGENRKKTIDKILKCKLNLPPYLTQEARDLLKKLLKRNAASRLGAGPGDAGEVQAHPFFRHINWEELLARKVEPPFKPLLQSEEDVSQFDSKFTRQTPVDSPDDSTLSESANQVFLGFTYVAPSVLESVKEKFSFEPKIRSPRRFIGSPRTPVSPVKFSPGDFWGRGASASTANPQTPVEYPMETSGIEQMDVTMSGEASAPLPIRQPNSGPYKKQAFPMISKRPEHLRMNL
For data set [9], the target named is His-p70 S6K-T2 (p70 S6K with N-terminal His tag lacking the carboxy terminal 104 residues), P23443.
His-p70 S6K-T2 (p70 S6K with N-terminal His tag lacking the carboxy terminal 104 residues), P23443, sequence (P23443 whole entry, looked up): as above
Substrate in data set [10]: PIF peptide with Asp978 changed to phosphoserine
Data set [11] addresses T3, PIFtide (24 residue synthetic peptide encompassing the PDK1 binding site on PIF).
T3 chain: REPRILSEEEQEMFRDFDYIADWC

GST-SGK1 (lacking the N-terminal 60 amino acids), O00141, sequence (O00141 whole entry, looked up): as the sequence (O00141 whole entry, looked up, stated change not applied) above
GST-PKBα[S473D] (full length), P31749, sequence (P31749 whole entry S473D, looked up): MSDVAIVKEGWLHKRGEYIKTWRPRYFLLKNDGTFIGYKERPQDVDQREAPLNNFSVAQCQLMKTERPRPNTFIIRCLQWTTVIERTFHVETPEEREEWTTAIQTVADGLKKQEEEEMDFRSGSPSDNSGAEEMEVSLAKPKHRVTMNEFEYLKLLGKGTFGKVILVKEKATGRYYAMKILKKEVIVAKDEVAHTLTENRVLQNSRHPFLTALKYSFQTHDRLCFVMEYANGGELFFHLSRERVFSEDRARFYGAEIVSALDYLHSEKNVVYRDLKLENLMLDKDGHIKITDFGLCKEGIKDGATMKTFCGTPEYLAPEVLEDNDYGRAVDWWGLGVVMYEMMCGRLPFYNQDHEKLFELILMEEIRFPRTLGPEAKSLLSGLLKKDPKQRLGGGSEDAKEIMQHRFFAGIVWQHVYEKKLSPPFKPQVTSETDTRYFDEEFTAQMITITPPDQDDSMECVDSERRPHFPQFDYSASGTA
GST-ΔPH-PKBα[S473D], P31749, sequence (P31749 whole entry S473D, looked up): as above
GST-ΔPH-PKBα, P31749, sequence (P31749 whole entry, looked up, stated change not applied): as the sequence (P31749 whole entry S473D, looked up) above, with D473S counted along it
GST-PKBα (full length), P31749, sequence (P31749 whole entry, looked up): as the sequence (P31749 whole entry S473D, looked up) above, with D473S counted along it
GST-PKBα[F472A] (full length), P31749, sequence (P31749 whole entry F472A, looked up): as the sequence (P31749 whole entry S473D, looked up) above, with F472A, D473S counted along it

B1: His-PDK1 (PDK1 residues 52-556 with an N-terminal hexahistidine tag) (protein)
chain: HHHHHHDGTAAEPRPGAGSLQHAQPPPQPRKKRPEDFKFGKILGEGSFSTVVLARELATSREYAIKILEKRHIIKENKVPYVTRERDVMSRLDHPFFVKLYFTFQDDEKLYFGLSYAKNGELLKYIRKIGSFDETCTRFYTAEIVSALEYLHGKGIIHRDLKPENILLNEDMHIQITDFGTAKVLSPESKQARANSFVGTAQYVSPELLTEKSACKSSDLWALGCIIYQLVAGLPPFRAGNEYLIFQKIIKLEYDFPEKFFPKARDLVEKLLVLDATKRLGCEEMEGYGPLKAHPFFESVTWENLHQQTPPKLTAYLPAMSEDDEDCYGNYDNLLSQFGCMQVSSSSSSHSLSASDTGLPQRSGSNIEQYIHDLDSNSFELDLQFSEDEKRLLLEKQAGGNPWHQFVENNLILKMGPVDKRKGLFARRRQLLLTEGPHLYYVDPVNKVLKGEIPWSQELRPEAKNFKTFFVHTPNRTYYLMDPSGNAHKWCRKIQEVWRQRYQSHPDAAVQ
Regarding B1, the “rate of phosphorylation at 100 µM, against T308tide” value in data set [1] is “PDKtide was phosphorylated at a rate over 100-fold greater than that using T308tide”. In addition, the “Km of PDK1 for the peptide substrate” value with T308tide is recorded as “compared to >10 mM for T308tide”.

B2: GST-PDK1 wild type (full length PDK1, residues 1-556, N-terminal GST) (protein)
chain: MARTTSQLYDAVPIQSSVVLCSCPSPSMVRTQTESSTPPGIPGGSRQGPAMDGTAAEPRPGAGSLQHAQPPPQPRKKRPEDFKFGKILGEGSFSTVVLARELATSREYAIKILEKRHIIKENKVPYVTRERDVMSRLDHPFFVKLYFTFQDDEKLYFGLSYAKNGELLKYIRKIGSFDETCTRFYTAEIVSALEYLHGKGIIHRDLKPENILLNEDMHIQITDFGTAKVLSPESKQARANSFVGTAQYVSPELLTEKSACKSSDLWALGCIIYQLVAGLPPFRAGNEYLIFQKIIKLEYDFPEKFFPKARDLVEKLLVLDATKRLGCEEMEGYGPLKAHPFFESVTWENLHQQTPPKLTAYLPAMSEDDEDCYGNYDNLLSQFGCMQVSSSSSSHSLSASDTGLPQRSGSNIEQYIHDLDSNSFELDLQFSEDEKRLLLEKQAGGNPWHQFVENNLILKMGPVDKRKGLFARRRQLLLTEGPHLYYVDPVNKVLKGEIPWSQELRPEAKNFKTFFVHTPNRTYYLMDPSGNAHKWCRKIQEVWRQRYQSHPDAAVQ
In the case of B2, the “phosphorylation of GST-p70 S6K-T2 by GST-PDK1 in vitro (32P autoradiography), 4 µM peptide” value is “poorly inhibited the phosphorylation of GST-p70 S6K-T2 by PDK1 slightly” in the data set with D978A-PIFtide and “prevented PDK1 from phosphorylating GST-p70 S6K-T2” in data set [10]. Further, the “phosphorylation of GST-p70 S6K-T2 by GST-PDK1 in vitro (32P autoradiography), 1.5 µM” value in the data set with GST-D978A-PIF is listed as “poorly inhibited the phosphorylation of GST-p70 S6K-T2 by PDK1 slightly”. Further, the relative phosphorylation of the substrate by PDK1 in vitro (PKB[S473D] = 100), +PIFtide in [2] turned out to be 19.3 relative; in data set [4] it was 85.4 relative; in data set [5], 3.8 relative; in [6], 9.6 relative; with GST-ΔPH-PKBα, P31749, 0.25 relative; in [7], 0.2 relative. Besides, the relative phosphorylation of the substrate by PDK1 in vitro (PKB[S473D] = 100), +PIFtide in [8] is 7.4 relative; in [9], 0.58 relative. Besides, the relative phosphorylation of the substrate by PDK1 in vitro (PKB[S473D] = 100), no PIFtide in data set [2] turned out to be 28 relative; in data set [5] it was 8 relative; in [6], 71 relative; with GST-ΔPH-PKBα, P31749, 0.4 relative; in data set [7], 0.9 relative; in data set [8] it was 54 relative. The “rate of phosphorylation by PDK1 in vitro, against the wild type enzyme” value in data set [3] was “PKB[F472A] was phosphorylated at a similar rate to the wild type PKB”. In addition, the relative phosphorylation of the substrate by PDK1 in vitro (this value taken as 100; 2.6 mol/mol PDK1/min), no PIFtide in [4] was found to be 100 relative. In data set [9], this protein displayed a relative phosphorylation of the substrate by PDK1 in vitro (32P, SDS-PAGE, PhosphoImager; PKB[S473D] with PtdIns(3,4,5)P3 = 100), no PIFtide of 10.4 relative. In data set [11], the “phosphorylation of GST-p70 S6K-T2 (wt and 252A) at Thr412 by wt-GST-PDK1, T412-P immunoblot” value was “band in every lane without PIF peptide, no band in the neighbouring lane with PIF peptide (4 µM), for PDK1 from 293 cells and from E. coli”. In addition, the “phosphorylation of GST-p70 S6K-T2 at Thr412 by GST-PDK1 (T412-P immunoblot), 4 µM peptide” value in [11] is on record as “The 24 residue PIF peptide prevented PDK1 from phosphorylating the p70 S6K at Thr412”.

B3: GST-PDK1[L155E] (protein)
chain: MARTTSQLYDAVPIQSSVVLCSCPSPSMVRTQTESSTPPGIPGGSRQGPAMDGTAAEPRPGAGSLQHAQPPPQPRKKRPEDFKFGKILGEGSFSTVVLARELATSREYAIKILEKRHIIKENKVPYVTRERDVMSRLDHPFFVKLYFTFQDDEKEYFGLSYAKNGELLKYIRKIGSFDETCTRFYTAEIVSALEYLHGKGIIHRDLKPENILLNEDMHIQITDFGTAKVLSPESKQARANSFVGTAQYVSPELLTEKSACKSSDLWALGCIIYQLVAGLPPFRAGNEYLIFQKIIKLEYDFPEKFFPKARDLVEKLLVLDATKRLGCEEMEGYGPLKAHPFFESVTWENLHQQTPPKLTAYLPAMSEDDEDCYGNYDNLLSQFGCMQVSSSSSSHSLSASDTGLPQRSGSNIEQYIHDLDSNSFELDLQFSEDEKRLLLEKQAGGNPWHQFVENNLILKMGPVDKRKGLFARRRQLLLTEGPHLYYVDPVNKVLKGEIPWSQELRPEAKNFKTFFVHTPNRTYYLMDPSGNAHKWCRKIQEVWRQRYQSHPDAAVQ
Take B3: the relative phosphorylation of the substrate by PDK1-L155E in vitro (PKB[S473D] with wild type PDK1 = 100), +PIFtide worked out at 35 relative in data set [2]; 162 relative in data set [4]; 2.4 relative in data set [5]; 3.4 relative in data set [6]; 0.25 relative with GST-ΔPH-PKBα, P31749; 0.15 relative in data set [7]. Besides, the relative phosphorylation of the substrate by PDK1-L155E in vitro (PKB[S473D] with wild type PDK1 = 100), +PIFtide in [8] was found to be 0.108 relative; in [9], 0.27 relative. Also, the relative phosphorylation of the substrate by PDK1-L155E in vitro (PKB[S473D] with wild type PDK1 = 100), no PIFtide in data set [2] is 35 relative; in data set [4] it was 178 relative; in [5], 3.3 relative; in data set [6], 3.5 relative; with GST-ΔPH-PKBα, P31749 it was 0.23 relative; in [7], 0.18 relative. Besides, the relative phosphorylation of the substrate by PDK1-L155E in vitro (PKB[S473D] with wild type PDK1 = 100), no PIFtide in [8] was found to be 0.5 relative; in data set [9], 0.6 relative.
